The values below come from patent publication US11191771B2, “Combinations of PBD-based antibody drug conjugates with FLT3 inhibitors” (Seagen Inc., priority 2016, dated 2021).

The assay has as its system FLT3/ITD MV4-11 xenografts. In words: Survival of FLT3/ITD MV4-11 xenografts. It counts as in vivo. The following applies: MV4-11 s.c. in SCID mice, quizartinib 0.4 mg/kg daily for 21 days by mouth. How it is done: Five million MV4-11 cells were implanted subcutaneously in SCID mice. Tumor growth was monitored throughout the course of the study with bilateral vernier caliper measurements, and mean tumor volumes were calculated using the equation (0.5×[length×width^2]).
Mice with advanced tumor burden were sacrificed upon reaching tumor volumes of greater than 400 mm^3 or showing symptoms of hind limb paralysis, cranial swelling, and/or moribundity.

B1: SGN-CD33A: h2H12EC antibody conjugated to SGD-1910, the pyrrolobenzodiazepine dimer drug-linker (conjugate, chains of the INN, looked up)
VH: QVQLVQSGAEVKKPGASVKVSCKASGYTFTNYDINWVRQAPGQGLEWIGWIYPGDGSTKYNEKFKAKATLTADTSTSTAYMELRSLRSDDTAVYYCASGYEDAMDYWGQGTTVTVSS
VL: DIQMTQSPSSLSASVGDRVTINCKASQDINSYLSWFQQKPGKAPKTLIYRANRLVDGVPSRFSGSGSGQDYTLTISSLQPEDFATYYCLQYDEFPLTFGGGTKVEIK
modifications: PBD dimer payload (talirine)
For B1, the “effect on progression / survival” value (ADC 10 mcg/kg once i.p., FIG. 5) was “induced delay of progression”. In addition, the median survival time (SGN-CD33A or SGN-CD123A 10 mcg/kg once i.p., untreated 23 days) came out at 31 days.
